This assay has as its target PALB2 construct (UniProt Q86YC2). Put plainly: ITC; BRCA1 (control 0.6 mM, 17 injections; modified 0.255 mM, 32 injections) titrated into PALB2 at 0.06 mM in the cell; 25 °C; 50 mM NaCl, 25 mM sodium phosphate, pH 6.5; single binding site model.
Sequence of UniProt Q86YC2 (Q86YC2 whole entry): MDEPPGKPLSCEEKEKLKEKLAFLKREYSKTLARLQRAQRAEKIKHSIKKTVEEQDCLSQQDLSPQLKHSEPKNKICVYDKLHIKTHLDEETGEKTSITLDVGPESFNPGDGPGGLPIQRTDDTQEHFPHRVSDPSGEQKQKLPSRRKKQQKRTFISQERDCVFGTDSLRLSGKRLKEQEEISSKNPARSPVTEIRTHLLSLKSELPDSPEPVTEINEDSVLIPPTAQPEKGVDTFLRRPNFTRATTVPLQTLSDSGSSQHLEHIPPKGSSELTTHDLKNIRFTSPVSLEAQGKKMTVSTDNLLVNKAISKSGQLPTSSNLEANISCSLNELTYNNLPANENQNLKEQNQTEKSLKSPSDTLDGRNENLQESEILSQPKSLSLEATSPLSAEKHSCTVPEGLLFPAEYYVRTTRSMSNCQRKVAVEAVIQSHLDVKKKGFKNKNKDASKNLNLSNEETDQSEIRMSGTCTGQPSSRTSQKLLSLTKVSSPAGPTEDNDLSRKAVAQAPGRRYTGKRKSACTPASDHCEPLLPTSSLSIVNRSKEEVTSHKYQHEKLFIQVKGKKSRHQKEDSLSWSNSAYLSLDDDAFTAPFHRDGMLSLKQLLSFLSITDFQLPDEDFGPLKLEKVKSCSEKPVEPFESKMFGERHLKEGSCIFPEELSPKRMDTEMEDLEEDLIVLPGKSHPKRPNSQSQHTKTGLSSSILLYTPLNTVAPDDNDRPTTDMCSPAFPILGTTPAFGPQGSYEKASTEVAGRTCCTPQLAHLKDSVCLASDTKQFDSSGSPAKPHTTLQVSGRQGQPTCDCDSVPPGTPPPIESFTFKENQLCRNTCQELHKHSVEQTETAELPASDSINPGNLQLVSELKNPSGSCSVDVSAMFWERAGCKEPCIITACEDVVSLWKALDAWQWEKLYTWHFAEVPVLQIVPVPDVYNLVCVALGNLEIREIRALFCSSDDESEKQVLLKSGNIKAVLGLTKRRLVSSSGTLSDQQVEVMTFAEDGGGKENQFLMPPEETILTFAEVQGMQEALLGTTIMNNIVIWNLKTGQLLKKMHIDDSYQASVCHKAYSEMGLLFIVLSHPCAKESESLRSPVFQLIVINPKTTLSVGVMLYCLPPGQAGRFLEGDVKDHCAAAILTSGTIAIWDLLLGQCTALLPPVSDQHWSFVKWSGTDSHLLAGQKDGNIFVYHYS

B1: BRCA1 disordered PALB2-binding domain, residues 1377-1426, modified with dichlorotriazine 1 (indole-labeled) (domain or fragment)
chain: GPGSSVSEDCSGLSSQSDILTTQQRDTMQHNLIKLQQEMAELEAVLEQHGSQPS
modifications: a single 272 Da indole incorporation from dichlorotriazine 1; site not determined by MS/MS, the single lysine (residue 1406 in BRCA1) is the intended site
One may read the Kd as the equilibrium constant for the complex coming apart. High values mean lower affinity, low ones higher affinity. As for B1, the Kd worked out at 3 µM.

B2: BRCA1 disordered PALB2-binding domain, residues 1377-1426, control (unmodified) preparation (domain or fragment)
chain: B1 chain
B2 yielded a Kd of 4.1 µM.
